Earlier results, collected in article PMC3792554.

Target: IL-18 (Homo sapiens) (UniProt Q14116)
Sequence (Q14116 37-193): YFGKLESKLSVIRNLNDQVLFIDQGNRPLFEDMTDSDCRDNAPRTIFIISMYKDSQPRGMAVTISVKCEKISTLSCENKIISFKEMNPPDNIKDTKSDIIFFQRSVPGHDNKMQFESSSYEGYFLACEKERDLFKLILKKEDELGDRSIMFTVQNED

IL-18BP, sequence (O95998 31-194): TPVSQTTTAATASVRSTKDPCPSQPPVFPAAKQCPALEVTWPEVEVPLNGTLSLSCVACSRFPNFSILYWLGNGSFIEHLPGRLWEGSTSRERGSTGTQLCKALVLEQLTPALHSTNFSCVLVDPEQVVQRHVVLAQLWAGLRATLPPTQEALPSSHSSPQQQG

IL-18BP (from UniProt O95998)
Kd: 400 pM
